Source: article PMC6485186

Biological target: TNF-alpha (mouse) (Mus musculus, UniProt P06804 80-235)
Experiment: nitrocellulose filter binding with qPCR

Chain of TNF-alpha (mouse) (P06804 80-235): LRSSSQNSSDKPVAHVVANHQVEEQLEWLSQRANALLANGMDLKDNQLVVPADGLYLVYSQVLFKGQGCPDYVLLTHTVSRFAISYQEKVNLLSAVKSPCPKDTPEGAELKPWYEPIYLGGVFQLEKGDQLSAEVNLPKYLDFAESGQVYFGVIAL

GCGCCACTACAGGGGAGCTGCCATTCGAATAGGTGGGCCGC (ssDNA) [aptTNF-alpha]: binds.
